Values belong to the molecule of their own block, whether it stands above or below them.
Key:
[1] = target: human sialoadhesin factor-3 (SAF-3), on cells (human) (UniProt Q9Y286); test: flow cytometry on monocyte-derived DCs cultured 7 days with mAb 12B1
SAF-2 = SAF-2 (UniProt Q9NYZ4 17-363, limits assumed); test: displacement immunoassay
SAF-2, sequence (Q9NYZ4 17-363 limits assumed): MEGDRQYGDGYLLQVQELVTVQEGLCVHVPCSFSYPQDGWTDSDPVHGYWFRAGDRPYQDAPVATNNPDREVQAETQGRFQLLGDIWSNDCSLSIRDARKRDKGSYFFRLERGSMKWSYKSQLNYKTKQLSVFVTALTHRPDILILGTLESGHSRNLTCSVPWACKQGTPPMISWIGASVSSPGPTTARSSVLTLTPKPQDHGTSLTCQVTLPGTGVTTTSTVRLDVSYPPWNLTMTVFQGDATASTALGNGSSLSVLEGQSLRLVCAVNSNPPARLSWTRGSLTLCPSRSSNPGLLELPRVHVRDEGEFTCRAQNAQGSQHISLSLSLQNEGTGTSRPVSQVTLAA

human sialoadhesin factor-3 (SAF-3), on cells (human), sequence (Q9Y286 19-467 L192P/I393V limits assumed): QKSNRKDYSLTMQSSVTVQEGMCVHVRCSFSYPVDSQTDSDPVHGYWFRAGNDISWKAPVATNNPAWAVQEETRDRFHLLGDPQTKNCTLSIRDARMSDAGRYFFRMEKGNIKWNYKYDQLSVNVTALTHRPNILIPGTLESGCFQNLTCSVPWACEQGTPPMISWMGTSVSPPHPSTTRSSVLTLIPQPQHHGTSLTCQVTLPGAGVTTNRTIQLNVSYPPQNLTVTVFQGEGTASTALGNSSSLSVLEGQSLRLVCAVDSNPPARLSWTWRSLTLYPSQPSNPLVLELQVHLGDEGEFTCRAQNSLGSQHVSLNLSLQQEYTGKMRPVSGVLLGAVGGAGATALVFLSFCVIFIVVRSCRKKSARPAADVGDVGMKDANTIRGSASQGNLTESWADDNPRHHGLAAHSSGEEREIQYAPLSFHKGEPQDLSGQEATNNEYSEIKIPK

Mean Fluorescent Intensity [1]: 3.5 MFI
Molecule: Isotype Control (antibody)

B1: monoclonal antibody 12B1 (antibody, IgG2a, V domains shown)
VH: QIQLQQSGPELVKPGASVKVSCKASGYSFTDYNIYWVKQSHGKSLEWIGYIDPYNDDTGYNQKFKGKATLTVDKSSSTAFMHLNSLTSEDSAVYYCASEGIHWGQGTLVTVS
VL: DIVMTQSQKFMSTSVGDRVSVTCKASQNVGTNVAWFQQKPGQSPKALIYSASYRYNGVPDRFTGSGSGTDFTLTISNVQSEDLADYFCQQYNIYPYTFGGGTKLEIK
notes: also called mAb 12B1; SAF-3 mAb (clone 12B1)
binding result (SAF-2): no binding (tested: max. displacement 5%)

Reference: patent publication US20060073133A1 (published 2006)
